{
  "source": "paper PMC5137443",
  "assay_in_all_cases": "filter binding",
  "key": {"POT1;TPP1-L23 mutant": {"biological_target": "POT1;TPP1-L23 mutant (Homo sapiens;Homo sapiens, UniProt Q9NUX5;Q96AP0 1-634;3-248, |D62A;G63A;T64A;H65A)"}, "POT1;TPP1 (WT)": {"biological_target": "POT1;TPP1 (WT) (Homo sapiens;Homo sapiens, UniProt Q9NUX5;Q96AP0 1-634;3-248, |)"}, "POT1;TPP1-L45 mutant": {"biological_target": "POT1;TPP1-L45 mutant (Homo sapiens;Homo sapiens, UniProt Q9NUX5;Q96AP0 1-634;3-105+=AAAAA+116-248, |internal_change)"}, "POT1": {"biological_target": "T1, POT1 (Homo sapiens, UniProt Q9NUX5 1-634)", "T1 sequence": "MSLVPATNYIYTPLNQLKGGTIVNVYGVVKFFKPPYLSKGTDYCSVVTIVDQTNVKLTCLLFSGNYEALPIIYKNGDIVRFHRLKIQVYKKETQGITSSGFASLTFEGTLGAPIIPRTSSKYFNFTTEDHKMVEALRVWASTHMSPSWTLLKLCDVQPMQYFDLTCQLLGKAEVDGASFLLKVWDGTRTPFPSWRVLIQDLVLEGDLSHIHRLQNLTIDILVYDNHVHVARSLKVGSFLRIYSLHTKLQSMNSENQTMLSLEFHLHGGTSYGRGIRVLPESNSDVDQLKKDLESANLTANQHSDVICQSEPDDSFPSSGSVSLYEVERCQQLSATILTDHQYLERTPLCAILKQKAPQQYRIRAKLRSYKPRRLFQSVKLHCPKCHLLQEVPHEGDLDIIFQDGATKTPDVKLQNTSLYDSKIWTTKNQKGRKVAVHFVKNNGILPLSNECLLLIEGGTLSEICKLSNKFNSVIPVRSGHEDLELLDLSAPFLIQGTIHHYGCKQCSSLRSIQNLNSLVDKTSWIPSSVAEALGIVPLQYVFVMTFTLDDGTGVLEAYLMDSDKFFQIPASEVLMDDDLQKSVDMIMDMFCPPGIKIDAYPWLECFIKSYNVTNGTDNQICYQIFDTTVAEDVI"}},
  "data": [
    {"binder": "GGTTAGGGTTAG (ssDNA)", "note": "[hT12wt, d(GGTTAG)2]", "values": [
      {"measurement": "Kd", "setting": "POT1;TPP1-L23 mutant", "value": "27.3 ± 4.2", "unit": "nM"},
      {"measurement": "Kd", "setting": "POT1;TPP1 (WT)", "value": "3.8 ± 0.5", "unit": "nM"},
      {"measurement": "Kd", "setting": "POT1;TPP1-L45 mutant", "value": "13.7 ± 5.5", "unit": "nM"},
      {"measurement": "Kd", "setting": "POT1", "value": "38.2 ± 4.8", "unit": "nM"}
    ]}
  ]
}
